Results published in the supplement of paper PMC9112550, “Optimization of the antimicrobial peptide Bac7 by deep mutational scanning” (BMC Biology, 2022).

tested on: Escherichia coli TOP10; test: shrunken log2 fold change of peptide-encoding DNA abundance (4.5 h post-induction vs induction); higher = less antimicrobial activity (less host growth inhibition); details: time post-induction: 4.5 h; library: site-saturation at positions 5, 18, 19, 20
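Further: peptides expressed intracellularly from a pBAD plasmid library in pooled LB shake-flask culture, induced with 0.3% L-arabinose, DNA abundance read by NGS, three biological replicates, DESeq2 with apeglm shrinkage.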

Sequence | shrunken log2 fold change
RRIRSRPPRLPRPRPRPKHIPRP | -0.368
RRIRSRPPRLPRPRPRPKHLPRP | -0.466
RRIRSRPPRLPRPRPRPKHMPRP | 0.00683
RRIRSRPPRLPRPRPRPKIMPRP | -0.246
RRIRSRPPRLPRPRPRPKKCPRP | -0.0782
RRIRSRPPRLPRPRPRPKLIPRP | -0.257
RRIRSRPPRLPRPRPRPKLSPRP | 0.352
RRIRSRPPRLPRPRPRPKMAPRP | -0.13
RRIRSRPPRLPRPRPRPKMRPRP | 0.269
RRIRSRPPRLPRPRPRPKNYPRP | -0.547
RRIRSRPPRLPRPRPRPKQVPRP | 0.0497
RRIRSRPPRLPRPRPRPKSWPRP | 0.392
RRIRSRPPRLPRPRPRPKVQPRP | 0.293
RRIRSRPPRLPRPRPRPKVYPRP | 0.226
RRIRSRPPRLPRPRPRPKYTPRP | -0.518
RRIRSRPPRLPRPRPRPLCDPRP | 0.155
RRIRSRPPRLPRPRPRPLDKPRP | -0.233
RRIRSRPPRLPRPRPRPLELPRP | 0.12
RRIRSRPPRLPRPRPRPLFWPRP | 0.132
RRIRSRPPRLPRPRPRPLGFPRP | 0.0335
RRIRSRPPRLPRPRPRPLGNPRP | -0.43
RRIRSRPPRLPRPRPRPLIFPRP | -0.403

Sequence | shrunken log2 fold change
RRIRSRPPRLPRPRPRPLLDPRP | 0.218
RRIRSRPPRLPRPRPRPLLEPRP | 0.243
RRIRSRPPRLPRPRPRPLLLPRP | -0.0475
RRIRSRPPRLPRPRPRPLLQPRP | -0.227
RRIRSRPPRLPRPRPRPLMSPRP | -0.0126
RRIRSRPPRLPRPRPRPLPWPRP | 0.21
RRIRSRPPRLPRPRPRPLQDPRP | -0.129
RRIRSRPPRLPRPRPRPLQHPRP | -0.00742
RRIRSRPPRLPRPRPRPLTKPRP | -0.175
RRIRSRPPRLPRPRPRPLVHPRP | -0.253
RRIRSRPPRLPRPRPRPLVPPRP | -0.0319
RRIRSRPPRLPRPRPRPLWKPRP | 0.197
RRIRSRPPRLPRPRPRPMAFPRP | -0.0285
RRIRSRPPRLPRPRPRPMCKPRP | 0.204
RRIRSRPPRLPRPRPRPMDCPRP | 0.00208
RRIRSRPPRLPRPRPRPMEMPRP | -0.0909
RRIRSRPPRLPRPRPRPMFEPRP | -0.0573
RRIRSRPPRLPRPRPRPMFFPRP | -0.274
RRIRSRPPRLPRPRPRPMFIPRP | -0.212
RRIRSRPPRLPRPRPRPMGNPRP | 0.0909
RRIRSRPPRLPRPRPRPMGPPRP | -0.0846
RRIRSRPPRLPRPRPRPMHHPRP | -0.0364

Sequence | shrunken log2 fold change
RRIRSRPPRLPRPRPRPMKRPRP | -0.115
RRIRSRPPRLPRPRPRPMLEPRP | -0.0898
RRIRSRPPRLPRPRPRPMLTPRP | -0.0725
RRIRSRPPRLPRPRPRPMMSPRP | 0.0638
RRIRSRPPRLPRPRPRPMNIPRP | -0.196
RRIRSRPPRLPRPRPRPMVFPRP | 0.104
RRIRSRPPRLPRPRPRPMVRPRP | 0.00927
RRIRSRPPRLPRPRPRPMWKPRP | -0.101
RRIRSRPPRLPRPRPRPMYTPRP | -0.0916
RRIRSRPPRLPRPRPRPNAFPRP | -0.0168
RRIRSRPPRLPRPRPRPNASPRP | 0.233
RRIRSRPPRLPRPRPRPNAWPRP | -0.0228
RRIRSRPPRLPRPRPRPNAYPRP | -0.696
RRIRSRPPRLPRPRPRPNCSPRP | -0.0305
RRIRSRPPRLPRPRPRPNCWPRP | 0.292
RRIRSRPPRLPRPRPRPNECPRP | -0.136
RRIRSRPPRLPRPRPRPNFIPRP | -0.391
RRIRSRPPRLPRPRPRPNGGPRP | -0.0284
RRIRSRPPRLPRPRPRPNGKPRP | -0.437
RRIRSRPPRLPRPRPRPNHCPRP | -0.415
RRIRSRPPRLPRPRPRPNHEPRP | -0.175
RRIRSRPPRLPRPRPRPNKIPRP | -0.294

Sequence | shrunken log2 fold change
RRIRSRPPRLPRPRPRPNMFPRP | -0.289
RRIRSRPPRLPRPRPRPNNKPRP | -0.559
RRIRSRPPRLPRPRPRPNNVPRP | -0.592
RRIRSRPPRLPRPRPRPNRAPRP | -0.0803
RRIRSRPPRLPRPRPRPNRFPRP | -0.0804
RRIRSRPPRLPRPRPRPNSGPRP | 0.0845
RRIRSRPPRLPRPRPRPNSPPRP | -0.149
RRIRSRPPRLPRPRPRPNTKPRP | -0.259
RRIRSRPPRLPRPRPRPNWGPRP | -0.0911
RRIRSRPPRLPRPRPRPPAEPRP | 2.3
RRIRSRPPRLPRPRPRPPCEPRP | -0.236
RRIRSRPPRLPRPRPRPPDEPRP | 0.813
RRIRSRPPRLPRPRPRPPDNPRP | -0.0697
RRIRSRPPRLPRPRPRPPDVPRP | 0.14
RRIRSRPPRLPRPRPRPPFDPRP | 0.244
RRIRSRPPRLPRPRPRPPFHPRP | -0.0308
RRIRSRPPRLPRPRPRPPGLPRP | 0.348
RRIRSRPPRLPRPRPRPPHCPRP | 0.105
RRIRSRPPRLPRPRPRPPHDPRP | 0.277
RRIRSRPPRLPRPRPRPPHFPRP | 0.503
RRIRSRPPRLPRPRPRPPHPPRP | 0.325
RRIRSRPPRLPRPRPRPPIEPRP | 0.314

Sequence | shrunken log2 fold change
RRIRSRPPRLPRPRPRPPINPRP | -0.32
RRIRSRPPRLPRPRPRPPLQPRP | 0.504
RRIRSRPPRLPRPRPRPPMAPRP | 0.169
RRIRSRPPRLPRPRPRPPNQPRP | 0.134
RRIRSRPPRLPRPRPRPPPKPRP | 0.708
RRIRSRPPRLPRPRPRPPRMPRP | 0.274
RRIRSRPPRLPRPRPRPPRNPRP | 0.415
RRIRSRPPRLPRPRPRPPSQPRP | 0.235
RRIRSRPPRLPRPRPRPPSTPRP | 0.141
RRIRSRPPRLPRPRPRPPTPPRP | 0.63
RRIRSRPPRLPRPRPRPPVHPRP | 0.0185
RRIRSRPPRLPRPRPRPPWLPRP | 0.462
RRIRSRPPRLPRPRPRPPWRPRP | 0.614
RRIRSRPPRLPRPRPRPPYFPRP | -0.0285
RRIRSRPPRLPRPRPRPPYHPRP | -0.584
RRIRSRPPRLPRPRPRPPYRPRP | -0.119
RRIRSRPPRLPRPRPRPQCWPRP | 0.24
RRIRSRPPRLPRPRPRPQEAPRP | -0.0452
RRIRSRPPRLPRPRPRPQEFPRP | -0.00884
RRIRSRPPRLPRPRPRPQELPRP | -0.107
RRIRSRPPRLPRPRPRPQEYPRP | -0.257
